Laboratory results published in article PMC3575409, “Identification of a Novel Protein-Protein Interaction Motif Mediating Interaction of GPCR-Associated Sorting Proteins with G Protein-Coupled Receptors” (PLoS ONE, 2013).

What was measured:
GST-fused ADRB1 C-tail [1] = assay: GST-pull down, ADRB1 C-tail; format: binding; conditions: percent of input; data not shown
Description: cDNAs encoding the cytoplasmic C-tail of 14 GPCRs and 2 one-transmembrane receptors were cloned into the pGEX-2T prokaryotic expression vector downstream the GST sequence. The following pGEX constructs were engineered: pGEX-DOR encoding residues 314–372 of the δ-opioid receptor (referring to Swiss-Prot accession number U10504), pGEX-MOR encoding residues 334–400 of the µ-opioid receptor (L29301), pGEX-KOR encoding residues 326–380 of the κ–opioid receptor (U17298), pGEX-ORL1 encoding residues 315–370 of the opioid receptor-like 1 (X77130), pGEX-M1 encoding residues 414–460 of the muscarinic M1 acetylcholine receptor (X52068), pGEX-M2 encoding residues 436–466 of the muscarinic M2 acetylcholine receptor (M16404), pGEX- ADRB1 encoding residues 373–477 of the β1 adrenergic receptor (J03019), pGEX-ADRB2 encoding residues 322–413 of the β2 adrenergic receptor (P07550), pGEX-CALCR encoding residues 407–490 of the calcitonin receptor (L00587), pGEX-CNR2 encoding residues 295–360 of the cannabinoid type 2 receptor (P34972), pGEX-5HT7 encoding residues 380–445 of the 5-hydroxytryptamine 7 receptor (L21195), pGEX-H2 encoding residues 284–349 of the histamine 2 receptor (S57565), pGEX-TXA2 encoding residues 304–343 of the α isoform of the thromboxane A2 receptor (D38081), pGEX-FZ4 encoding residues 493–537 of the frizzled 4 receptor (AB032417), pGEX-TGFβ encoding residues 805–849 of the type III transforming growth factor b receptor (L07594), pGEX-IGF1 encoding residues 1268–1367 of the insulin growth factor I receptor (X04434). Free GST was produced by using the pGEX-4T3 expression vector without insert. The same plasmid was used to clone the cDNA encoding a central domain of GASP-1, corresponding to amino acids 380 to 1073, downstream the GST sequence. All these plasmids were transformed into the Escherichia coli BL21 strain and expression was induced using 1mM of isopropylthiogalactoside for 2 h at 37°C. Bacteria were then pelleted, resuspended in PBS supplemented with cOmplete protease inhibitors (Roche), lysed at 1.5 kbar using a basic Z cell disrupter (constant system) and finally the lysates were cleared by centrifugation (10,000g, 15 min, 4°C).
cDNAs encoding GASP-1 and GASP-2 were cloned into the pcDNA3 eukaryotic expression vectors. cDNAs encoding GASP-3, -6, -7, and -9 were subcloned into pcDNA3.1 vectors. All the clones were controlled by DNA sequencing. The in vitro production was performed by using the TNT Quick-coupled Transcription/Translation T7 kit (Promega) in presence of [^35S]-Methionine according to the instructions from the manufacturer.
(§1) GST-fusion proteins were immobilized on glutathione-coupled Sepharose beads (GE Healthcare) for 1 h at 4°C and incubated with [^35S]-labelled in vitro translated GASP proteins or their truncated or mutated forms in ice-cold binding buffer containing: 20 mM Tris-HCl pH 7.4, 150 mM NaCl, 1 mM EDTA, 1 mM DTT, 10% glycerol and 1% Triton X-100. The mixture was incubated for 1 h at 4°C with gentle rocking. The beads were washed five times with the same ice-cold buffer, resuspended in 30 µl SDS-PAGE sample buffer, incubated 10 min at 65°C, and pelleted for 60 s at 3000 g. The supernatants were then analyzed by SDS-PAGE, the gels were stained with Coomassie blue to visualize GST-fusion proteins, dried and analyzed using a Phosphor-imager (Personal Molecular Imager FX, Biorad) to visualize [^35S]-labelled GASPs. Quantification was performed with the Quantity One software (Biorad). GST-pull down quantification data were analyzed using GraphPad Prism 4.03 (GraphPad Software). Quantifications presented are means of at least three independent experiments.

GST-fused DOR C-tail [2] = conditions: previous study; ref [6]; cited from earlier work
Description: We therefore hypothesized that this conserved carboxyl-terminal domain could be critical for the interaction of GASPs with GPCRs.

GST-fused GPCR C-tails = assay: GST-pull down, GPCR C-tails; format: binding
Method in brief: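 GST-fused receptor C-tails, expressed in E. coli BL21 and immobilised on glutathione-Sepharose at saturating levels, were incubated 1 h at 4°C with [^35S]-labelled in vitro translated GASP proteins in pH 7.4 Tris buffer with 1% Triton X-100. Bound GASPs were resolved by SDS-PAGE and quantified by phosphor-imaging; means of ≥3 experiments.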

GST-fused FZ4 C-tail = assay: GST-pull down, FZ4 C-tail; format: binding; conditions: strong = >10% of GASP input
Method: (§2) cDNAs encoding the cytoplasmic C-tail of 14 GPCRs and 2 one-transmembrane receptors were cloned into the pGEX-2T prokaryotic expression vector downstream the GST sequence. […]
as §1, with “The mixture was incubated for 1 h at 4°C with gentle rocking. The beads were washed five times with the same ice-cold buffer, resuspended in 30 µl SDS-PAGE sample buffer, incubated 10 min at 65°C, and pelleted for 60 s at 3000 g.” left out

GST-fused ADRB2 C-tail = assay: GST-pull down, ADRB2 C-tail; format: binding; conditions: central domain compared to full-length GASP-1
Method: as §2
as §1, with “The mixture was incubated for 1 h at 4°C with gentle rocking. The beads were washed five times with the same ice-cold buffer, resuspended in 30 µl SDS-PAGE sample buffer, incubated 10 min at 65°C, and pelleted for 60 s at 3000 g.” left out

GST-fused DOR C-tail [3] = assay: GST-pull down, DOR C-tail; format: binding; conditions: among the opioid receptors
Method in brief: (§3)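 Phosphorimager quantification of [35S]-labelled GASP retained on GST-fused receptor C-tails after SDS-PAGE. Binding: glutathione-bead-bound fusions plus in vitro translated GASP, 1 h at 4°C, pH 7.4 Tris/NaCl/EDTA/DTT buffer with 1% Triton X-100. Means of at least three independent experiments.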

GST-fused CNR2 C-tail = assay: GST-pull down, CNR2 C-tail; format: binding; conditions: central domain compared to full-length GASP-1
Method: as §2
as §1, with “The mixture was incubated for 1 h at 4°C with gentle rocking. The beads were washed five times with the same ice-cold buffer, resuspended in 30 µl SDS-PAGE sample buffer, incubated 10 min at 65°C, and pelleted for 60 s at 3000 g.” left out

[4] = test system: GST-fused IGF1 (insulin growth factor I receptor) C-tail; assay: GST-pull down, IGF1 C-tail; format: binding; conditions: non-GPCR control
Method in brief: as §3

[5] = test system: GST-fused TGFβ (type III transforming growth factor β receptor) C-tail; assay: GST-pull down, TGFβ C-tail; format: binding; conditions: non-GPCR control
Method in brief: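 In vitro translated, [35S]-methionine-labelled GASP proteins were tested for retention by immobilized GST-tagged receptor C-terminal tails over 1 h at 4°C. Retained radioactivity after washing and SDS-PAGE gave the quantified binding, averaged over at least three independent experiments.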

GST-fused ADRB1 C-tail [6] = conditions: truncated form of GASP-1, amino-acids 898 to 1395; ref [10]; cited from earlier work
Description: This discrepancy is most likely due to the fact that we used full-length GASPs to perform our experiments, while Heydorn and collaborators used a truncated form of GASP-1, corresponding to amino-acids 898 to 1395. When we performed GST-pull down experiments with a similar fragment of GASP-1 (corresponding to amino acids 924 to 1395), only 5% ...

B1: amino acids 924 to 1395: carboxyl-terminal fragment of GASP-1, contains 2 GASP motifs (protein)
chain: CCVSKPEDDEEMIVESWFWSRDKAIKETGTVATCESKPENEEGAIVGSWFEAEDEVDNRTDNGSNCGSRTLADEDEAIVGSWFWAGDEAHFESNPSPVFRAICRSTCSVEQEPDPSRRPQSWEEVTVQFKPGPWGRVGFPSISPFRFPKEAASLFCEMFGGKPRNMVLSPEGEDQESLLQPDQPSPEFPFQYDPSYRSVQEIREHLRAKESTEPESSSCNCIQCELKIGSEEFEELLLLMEKIRDPFIHEISKIAMGMRSASQFTRDFIRDSGVVSLIETLLNYPSSRVRTSFLENMIRMAPPYPNLNIIQTYICKVCEETLAYSVDSPEQLSGIRMIRHLTTTTDYHTLVANYMSGFLSLLATGNAKTRFHVLKMLLNLSENLFMTKELLSAEAVSEFIGLFNREETNDNIQIVLAIFENIGNNIKKETVFSDDDFNIEPLISAFHKVEKFAKELQGKTDNQNDPEGDQEN
modifications: [35S]-methionine labelled
GST-fused ADRB1 C-tail [1]
  GASP-1 fragment input retained by ADRB1 C-tail: 5%
GST-fused DOR C-tail [2]
  interaction with the DOR C-tail: strong interaction

B2: GASP-1: GPCR-associated sorting protein 1 (protein)
chain: MTGAEIESGAQVKPEKKPGEEVVGGAEIENDVPLVVRPKVRTQAQIMPGARPKNKSKVMPGASTKVETSAVGGARPKSKAKAIPVSRFKEEAQMWAQPRFGAERLSKTERNSQTNIIASPLVSTDSVLVAKTKYLSEDRELVNTDTESFPRRKAHYQAGFQPSFRSKEETNMGSWCCPRPTSKQEASPNSDFKWVDKSVSSLFWSGDEVTAKFHPGNRVKDSNRSMHMANQEANTMSRSQTNQELYIASSSGSEDESVKTPWFWARDKTNTWSGPREDPNSRSRFRSKKEVYVESSSGSEHEDHLESWFGAGKEAKFRSKMRAGKEANNRARHRAKREACIDFMPGSIDVIKKESCFWPEENANTFSRPMIKKEARARAMTKEEAKTKARARAKQEARSEEEALIGTWFWATDESSMADEASIESSLQVEDESIIGSWFWTEEEASMGTGASSKSRPRTDGERIGDSLFGAREKTSMKTGAEATSESILAADDEQVIIGSWFWAGEEVNQEAEEETIFGSWFWVIDAASVESGVGVSCESRTRSEEEEVIGPWFWSGEQVDIEAGIGEEARPGAEEETIFGSWFWAENQTYMDCRAETSCDTMQGAEEEEPIIGSWFWTRVEACVEGDVNSKSSLEDKEEAMIPCFGAKEEVSMKHGTGVRCRFMAGAEETNNKSCFWAEKEPCMYPAGGGSWKSRPEEEEDIVNSWFWSRKYTKPEAIIGSWLWATEESNIDGTGEKAKLLTEEETIINSWFWKEDEAISEATDREESRPEAEEGDIIGSWFWAGEEDRLEPAAETREEDRLAAEKEGIVGSWFGAREETIRREAGSCSKSSPKAEEEEVIIGSWFWEEEASPEAVAGVGFESKPGTEEEEITVGSWFWPEEEASIQAGSQAVEEMESETEEETIFGSWFWDGKEVSEEAGPCCVSKPEDDEEMIVESWFWSRDKAIKETGTVATCESKPENEEGAIVGSWFEAEDEVDNRTDNGSNCGSRTLADEDEAIVGSWFWAGDEAHFESNPSPVFRAICRSTCSVEQEPDPSRRPQSWEEVTVQFKPGPWGRVGFPSISPFRFPKEAASLFCEMFGGKPRNMVLSPEGEDQESLLQPDQPSPEFPFQYDPSYRSVQEIREHLRAKESTEPESSSCNCIQCELKIGSEEFEELLLLMEKIRDPFIHEISKIAMGMRSASQFTRDFIRDSGVVSLIETLLNYPSSRVRTSFLENMIRMAPPYPNLNIIQTYICKVCEETLAYSVDSPEQLSGIRMIRHLTTTTDYHTLVANYMSGFLSLLATGNAKTRFHVLKMLLNLSENLFMTKELLSAEAVSEFIGLFNREETNDNIQIVLAIFENIGNNIKKETVFSDDDFNIEPLISAFHKVEKFAKELQGKTDNQNDPEGDQEN
modifications: [35S]-methionine labelled
GST-fused GPCR C-tails; percent of GASP input
  GASP input retained by GPCR C-tails: > 10%
GST-fused GPCR C-tails; twelve GPCR C-tails
  interaction with GPCR C-tails: medium to strong interactions
GST-fused FZ4 C-tail
  interaction with FZ4 C-tail: strong interaction
GST-fused ADRB2 C-tail
  interaction with ADRB2 C-tail: interact with GASP-1
GST-fused DOR C-tail [3]
  interaction with DOR C-tail: significant interactions
GST-fused CNR2 C-tail
  interaction with CNR2 C-tail: interact with GASP-1
[4]
  interaction with IGF1 C-tail: no interaction was detected
[5]
  interaction with TGFβ C-tail: no interaction was detected

B3: amino-acids 898 to 1395: truncated form of GASP-1 used by Heydorn and collaborators (protein, UniProt Q5JY77 898-1395, looked up, fragment)
chain: ESETEEETIFGSWFWDGKEVSEEAGPCCVSKPEDDEEMIVESWFWSRDKAIKETGTVATCESKPENEEGAIVGSWFEAEDEVDNRTDNGSNCGSRTLADEDEAIVGSWFWAGDEAHFESNPSPVFRAICRSTCSVEQEPDPSRRPQSWEEVTVQFKPGPWGRVGFPSISPFRFPKEAASLFCEMFGGKPRNMVLSPEGEDQESLLQPDQPSPEFPFQYDPSYRSVQEIREHLRAKESTEPESSSCNCIQCELKIGSEEFEELLLLMEKIRDPFIHEISKIAMGMRSASQFTRDFIRDSGVVSLIETLLNYPSSRVRTSFLENMIRMAPPYPNLNIIQTYICKVCEETLAYSVDSPEQLSGIRMIRHLTTTTDYHTLVANYMSGFLSLLATGNAKTRFHVLKMLLNLSENLFMTKELLSAEAVSEFIGLFNREETNDNIQIVLAIFENIGNNIKKETVFSDDDFNIEPLISAFHKVEKFAKELQGKTDNQNDPEGDQEN
GST-fused ADRB1 C-tail [6]
  interaction of GASP-1 with ADRB1 C-tail: low interaction
